Laboratory results published in patent US20260263614A1, “ANTIBODY DRUG CONJUGATES THAT BIND CDCP1 AND USES THEREOF” (Pheon Therapeutics Ltd, priority 2022, published 2026).
Each block holds one molecule with its values, some of them ahead of it.

Legend:
[1] = test system: HexA and MS1 DNA fragments; assay: DNA footprinting; type: binding
Protocol: Footprinting reactions were performed as using previously described methods using the DNA fragments HexA and HexB, which together contain all 64 symmetrical hexanucleotide sequences, and MS1 that contains all possible […] tetranucleotide sequences. The DNA fragments were obtained by cutting the parent plasmids with HindIII and SacI (for HexA and MS1) or EcoRI and PstI (for HexB), and were labelled at the 3′-end of the HindIII or EcoRI sites with [α-^32P]dATP using reverse transcriptase or exo-Klenow fragment. After gel purification, the radiolabelled DNA was dissolved in 10 mM Tris-HCl pH 7.5 containing 0.1 mM EDTA, at a concentration of about 10 c.p.s per μL as determined on a hand held Geiger counter. 1.5 μL of radiolabelled DNA was mixed with 1.5 μL ligand that had been freshly diluted in 10 mM Tris-HCl pH 7.5, containing 10 mM NaCl. The complexes were left to equilibrate for at least 12 hours before digesting with 2 μL DNase I (final concentration about 0.01 units/mL). The reactions were stopped after 1 minute by adding 4 μL of formamide containing 10 mM EDTA and bromophenol blue (0.1% w/v). The samples were then heated at 100° C. for 3 minutes before loading onto 8% denaturing polyacrylamide gels containing 8 M urea. Gels were fixed in 10% acetic acid, transferred to 3 MM paper, dried and exposed to a phosphor screen overnight, before analysing with a Typhoon phosphorimager
The DNA sequence selectivity profile of the molecules was investigated using a modification of a previously established DNA footprinting assay. Following an overnight incubation of the ligand-DNA complexes, the mixture was mixed with strand separation buffer containing 10 mM EDTA, 10 mM NaOH, 0.1% bromophenol blue, 80% formamide and incubated at 100° C. for 3 min. The mixture was then immediately cooled on ice and run on an 8% denaturing gel. […] The possible adducts formed within the HexA sequences are shown in FIGS. 20 and 21, respectively.

[2] = biological target: T1, huCDCP1(F30-T667 Q525)-8×His_T3 (human, UniProt Q9H5V8 30-667); assay: SPR, huCDCP1(F30-T667 Q525)-8×His_T3 as analyte; mAb lot T14
T1 construct: The construct name gives the limits F30-T667 and Q525; also called recombinant CDCP1 ECD; CDCP1 ECD
T1 sequence (Q9H5V8 other isoform, or with tags, fused parts or gaps): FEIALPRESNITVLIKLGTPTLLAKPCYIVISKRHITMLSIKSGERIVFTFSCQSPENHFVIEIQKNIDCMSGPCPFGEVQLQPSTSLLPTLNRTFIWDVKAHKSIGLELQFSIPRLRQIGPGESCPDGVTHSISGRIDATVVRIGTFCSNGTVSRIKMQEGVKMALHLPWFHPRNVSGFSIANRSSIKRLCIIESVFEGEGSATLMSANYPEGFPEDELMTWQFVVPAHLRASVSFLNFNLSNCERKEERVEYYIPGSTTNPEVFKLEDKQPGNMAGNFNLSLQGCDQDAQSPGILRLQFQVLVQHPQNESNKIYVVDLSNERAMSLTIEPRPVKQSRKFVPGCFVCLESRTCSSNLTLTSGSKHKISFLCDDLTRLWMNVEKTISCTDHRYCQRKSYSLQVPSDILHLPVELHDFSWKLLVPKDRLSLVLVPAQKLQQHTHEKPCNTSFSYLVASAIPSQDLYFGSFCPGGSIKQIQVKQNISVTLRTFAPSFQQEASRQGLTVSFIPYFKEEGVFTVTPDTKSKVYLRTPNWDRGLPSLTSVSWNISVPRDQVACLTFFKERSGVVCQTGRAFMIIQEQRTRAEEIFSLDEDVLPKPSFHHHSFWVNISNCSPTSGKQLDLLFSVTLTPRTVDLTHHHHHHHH

Molecule: C=CCOC(=O)N1c2cc(OCCCC(=O)Nc3cc(C(=O)Nc4ccc(NC(=O)C(F)(F)F)cc4)n(C)c3)c(OC)cc2C(=O)N2CCCC[C@H]2C1OC1CCCCO1 (stereo partly drawn) [Compound 17, Allyl (6aS)-2-methoxy-3-(4-((1-methyl-5-((4-(2,2,2-trifluoroacetamido)phenyl)carbamoyl)-1H-pyrrol-3-yl)amino)-4-oxobutoxy)-12-oxo-6-((tetrahydro-2H-pyran-2-yl)oxy)-6,6a,7,8,9,10-hexahydrobenzo[e]pyrido[1,2-a][1,4]diazepine-5(12H)-carboxylate]
DNA-binding site (X any base, W adenine or thymine) [1]: XGXWWWW

Kd [2]: 635 pM
koff [2]: 0.000374 s⁻¹
kon [2]: 589000 M⁻¹ s⁻¹
B1: ADC2 (CDCP1 mAb conjugated to compound 20, DAR of 4) (antibody, IgG1, V domains shown)
VH: EVQLLESGGGLVQPGGSLRLSCAASGFTFSNYAMNWVRQAPGKGLEWVSAISGGGGSTYYADSVKGRFTISRDNSKNTLYLQMNSLRAEDTAVYYCAKESITMVRGVMDYYGMDVWGQGTTVTVSS
VL: DIQLTQSPSFLSASVGDRVTITCRASQGISSYLAWYQQKPGKAPKLLIYAASTLQGGVPSRFSGSGSGTEFTLTISSLQPEDFATYYCQHLNRFPRTFGQGTKVEIK
modifications: compound 20 (maleimide-Val-Ala-PDD linker-payload) conjugated stochastically to reduced cysteines of the IgG1, average DAR 4.2; sites not stated

Kd [2]: 604 pM
koff [2]: 0.000401 s⁻¹
kon [2]: 663000 M⁻¹ s⁻¹
B2: ADC4 (CDCP1 mAb conjugated to compound 30, DAR of 4) (antibody, IgG1, V domains shown)
VH: B1 VH
VL: B1 VL
modifications: compound 30 (Mal-amido-PEG8-Val-Ala-exatecan) conjugated stochastically to reduced cysteines of the IgG1, average DAR 4; sites not stated
